Laboratory results published in PMC10806857.
Like-named read-outs stand apart in the source and are kept apart here.

Assays:
Assay in all cases: EMSA
STK19 25-C = STK19 25-C (Homo sapiens, UniProt P49842 25-254)
STK19 3KA = STK19 3KA (Homo sapiens, UniProt P49842 1-254, K186A;K190A;K201A)
[1] = target: T1, STK19 (TWH19) WT full-length (Homo sapiens, UniProt P49842 1-254)
[2] = target: T1, STK19 (TWH19) WT full-length; remark: listed apart in the source
[3] = target: T1, STK19 (TWH19) WT full-length; remark: listed apart in the source

T1 sequence (P49842 whole entry): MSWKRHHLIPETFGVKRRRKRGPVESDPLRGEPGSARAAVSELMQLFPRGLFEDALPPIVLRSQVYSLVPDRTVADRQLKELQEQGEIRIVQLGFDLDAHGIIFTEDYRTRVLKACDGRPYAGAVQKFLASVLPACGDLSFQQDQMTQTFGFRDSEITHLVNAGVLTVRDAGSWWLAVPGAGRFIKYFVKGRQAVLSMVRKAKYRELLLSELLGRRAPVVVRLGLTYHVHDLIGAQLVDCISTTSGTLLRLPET
STK19 3KA, sequence (P49842 whole entry K186A/K190A/K201A): as the sequence (P49842 whole entry) above, with K186A, K190A, K201A counted along it
STK19 25-C, sequence (P49842 25-254): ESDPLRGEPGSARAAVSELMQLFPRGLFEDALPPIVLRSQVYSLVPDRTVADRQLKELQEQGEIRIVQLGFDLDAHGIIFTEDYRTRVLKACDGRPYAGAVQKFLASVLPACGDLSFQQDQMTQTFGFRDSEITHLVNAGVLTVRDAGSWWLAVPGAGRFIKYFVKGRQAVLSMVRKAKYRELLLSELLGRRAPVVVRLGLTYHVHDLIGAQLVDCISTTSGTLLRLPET

B1: DNA1 (dsDNA)
DNA 1: CTGTACTTCCAGGGAATGGAAAGCGACCCTCTGCC
DNA 2: GGCAGAGGGTCGCTTTCCATTCCCTGGAAGTACAG
Kd (STK19 25-C): 3.8 µM | binding result (STK19 3KA): no binding

B2: DNA-30 bp-AT (dsDNA)
DNA 1: AAAAAAAAAAAAAAAAAAAAAAAAAAAAAA
DNA 2: TTTTTTTTTTTTTTTTTTTTTTTTTTTTTT
binding result [1]: binds

B3: RNA-30 bp-AT (dsRNA)
RNA 1: B2 DNA 1
RNA 2: UUUUUUUUUUUUUUUUUUUUUUUUUUUUUU
binding result [2]: binds

B4: DNA1 UVB-irradiated (dsDNA)
DNA 1: B1 DNA 1
DNA 2: B1 DNA 2
modifications: UVB irradiated, lesions undefined
binding result [3]: binds
